The data set concerns the molecule itself. Description: SEC-MALS; 100 ul of 2 mg/ml purified Flag-UBE2O-TwinStrep on Superdex 200 Increase 5/150 GL; 50 mM Tris-HCl pH 7.4, 200 mM NaCl, 0.5 mM TCEP.

B1: Flag-UBE2O-TwinStrep (purified recombinant Homo sapiens UBE2O) (enzyme, human, UniProt Q9C0C9 1-1292, looked up)
chain: MADPAAPTPAAPAPAQAPAPAPEAVPAPAAAPVPAPAPASDSASGPSSDSGPEAGSQRLLFSHDLVSGRYRGSVHFGLVRLIHGEDSDSEGEEEGRGSSGCSEAGGAGHEEGRASPLRRGYVRVQWYPEGVKQHVKETKLKLEDRSVVPRDVVRHMRSTDSQCGTVIDVNIDCAVKLIGTNCIIYPVNSKDLQHIWPFMYGDYIAYDCWLGKVYDLKNQIILKLSNGARCSMNTEDGAKLYDVCPHVSDSGLFFDDSYGFYPGQVLIGPAKIFSSVQWLSGVKPVLSTKSKFRVVVEEVQVVELKVTWITKSFCPGGTDSVSPPPSVITQENLGRVKRLGCFDHAQRQLGERCLYVFPAKVEPAKIAWECPEKNCAQGEGSMAKKVKRLLKKQVVRIMSCSPDTQCSRDHSMEDPDKKGESKTKSEAESASPEETPDGSASPVEMQDEGAEEPHEAGEQLPPFLLKEGRDDRLHSAEQDADDEAADDTDDTSSVTSSASSTTSSQSGSGTSRKKSIPLSIKNLKRKHKRKKNKITRDFKPGDRVAVEVVTTMTSADVMWQDGSVECNIRSNDLFPVHHLDNNEFCPGDFVVDKRVQSCPDPAVYGVVQSGDHIGRTCMVKWFKLRPSGDDVELIGEEEDVSVYDIADHPDFRFRTTDIVIRIGNTEDGAPHKEDEPSVGQVARVDVSSKVEVVWADNSKTIILPQHLYNIESEIEESDYDSVEGSTSGASSDEWEDDSDSWETDNGLVEDEHPKIEEPPIPPLEQPVAPEDKGVVISEEAATAAVQGAVAMAAPMAGLMEKAGKDGPPKSFRELKEAIKILESLKNMTVEQLLTGSPTSPTVEPEKPTREKKFLDDIKKLQENLKKTLDNVAIVEEEKMEAVPDVERKEDKPEGQSPVKAEWPSETPVLCQQCGGKPGVTFTSAKGEVFSVLEFAPSNHSFKKIEFQPPEAKKFFSTVRKEMALLATSLPEGIMVKTFEDRMDLFSALIKGPTRTPYEDGLYLFDIQLPNIYPAVPPHFCYLSQCSGRLNPNLYDNGKVCVSLLGTWIGKGTERWTSKSSLLQVLISIQGLILVNEPYYNEAGFDSDRGLQEGYENSRCYNEMALIRVVQSMTQLVRRPPEVFEQEIRQHFSTGGWRLVNRIESWLETHALLEKAQALPNGVPKASSSPEPPAVAELSDSGQQEPEDGGPAPGEASQGSDSEGGAQGLASASRDHTDQTSETAPDASVPPSVKPKKRRKSYRSFLPEKSGYPDIGFPLFPLSKGFIKSIRGVLTQFRAALLEAGMPECTEDK
notes: Homo sapiens UBE2O (ubiquitin-conjugating enzyme E2O), UniProt Q9C0C9, from plasmid pLV-Flag-hUBE2O-TS; also called hUBE2O; Flag-hUBE2O-TwinStrep; source: Expi293F cells, purified; not shown: Flag, N-terminal, kept
As to B1, the “stoichiometry N” value was 2.

What is called stoichiometry N is a count of units in the complex or per binding partner.

These data come from article PMC12835413, “Allosteric zinc inhibition and interdomain regulation govern the catalytic mechanism of the E3-independent ubiquitin-conjugating enzyme hUBE2O” (The Journal of Biological Chemistry, 2025).
